# Experimental data: the DeepSol protein solubility set
# Experiment: soluble on expression in E. coli; label from the status in PepcDB or PDB records
row,Sequence,soluble on expression in E. coli
1,METYDLVIIGGGINGAGIARDAAGRGLSVLLCEKDDLASHTSSASTKLIHGGLRYLEYYEFGLVRKALQEREVLLKAAPHIIWPLRFVMPHARDQRPEWMIRAGLFLYDHLAKREVLPGSETVSFARHPSGAPLKDAFKRGFVYSDGWVQDARLVVLNAMDAAEHGAKIHVRTACVAARRDGEHWLATLEREDGSRFEVRARALVNAAGPWVQSLIEDKLAMPSSKSIRLVKGSHIVVKKIFDHPFAYIFQNPDKRIIFAIPYEKDFTLIGTTDVEYHGDPAQVAIDGDEINYLCEMSNRYFHSQITPADVLSTYSGVRPLLDDASDNASSVTRDYALEMDLKGAPLLSVFGGKITTFRKLAEEAVDKIAPLLGCGQATWTAGAPLPGGDMPGADFGRFLQGLRQRHPWLPEALAERWARAYGTRVGKLIGKADSLAGLGKEVLPGLYEAELAYLADAEWATRSEDILWRRSKLKLHLPANAAEVVDAWLAARAQPPREALSALEHHHHHH,not soluble
2,MSLRKVIGIGETILDIIFRNDQPSAAVPGGSVFNGIVSLGRMGVNVCFISETGNDHVGNIILQFMRDNHIPTDHVNVFPDGKSPVSLAFLNEHSDAEYIFYKDYPKQRLDVLFPSINEDDIIVIGSYYALNPVLRDKILELLDIAKEKRAIVYYDPNFRSSHKNEAMKLAPTIIENLEYADIVRGSLEDFYYMYGIKDVEKIYKDKIKFYCPLFLCTAGAERISLRTNAISKEYPVAPLEAVSTIGAGDNFNAGLIYGMLKYDVRYRDLQHLSEETWDKVIQCGQDFAAEVCKSFNNSISGEFAANYREGHHHHHH,soluble
3,MAPRTYASVLTTPRGPAPLALYCPEAPECPKLEAISNLSFQQITQQAGTSNDQGFEFENTYVEHRINQEIESFVDTHHQEPLRKAAAQFRAVMKQEYPDSTCFITGSYPAGVDIFSSDIDFTVKVPTLEGANPFLKLMQLRKELSCYYTIFSKAYVQKGNIPVLQLMHAETKVSIDVTIDNDTSKRNTQLLAFYSQLDTRFPLLCKAMKAWAASCGVEGASRGRLNSFSLCLMLIHYLQTVQVLLNIQEIFPELNGDIVVEDDNYMKRDLKIEILEKGAFDFNQNTSSLAVLFIGFMKYYSEFNFKWNWISIKHGNVLKKKWSKTRVPKNGMPKDCRFIVVADPLLEIPRNCAGTVRQQNYMERIQLEFREEYERILKRKTIFNLYQCNWSRKLRKEGMERDLQIMILQDELRKLRIANLPTEEEVPWGTVVDFTSPRTFSPTNQHPKVFWCSEQTTENQRRDNLWPELLRTNPYAIFENLI,soluble
4,LAEGKEIPCFALTSPEAGSDAGSIPDYGVVTKGMWEGEEVVGMRITWNKRYITLAPVATVLGLAFKLQDPDGLLGDKKDLGITCALIPTDLDGVKIGRRHFPLNVPFQNGPTQGNDLFVPLDYIIGG,not soluble
5,MIVQKELVAIYDYEVPVPEDPFSFRLEIHKCSELFTGSVYRLERFRLRPTFHQRDREDADPLINDALIYIRDECIDERKLRGESPETVIAIFNRELQNIFNQEIE,soluble
6,GHHHHHHLEKCVFVTVGTTSFDDLIACVSAPDSLQKIESLGYNRLILQIGRGTVVPEPFSTESFTLDVYRYKDSLKEDIQKADLVISHAGAGSCLETLEKGKPLVVVINEKLMNNHQLELAKQLHKEGHLFYCTCSTLPGLLQSMDLSTLKCYPPGQPEKFSAFLDKVVGLQK,not soluble
7,GSHMIDVPIPRFAVGIVIGRNGEMIKKIQNDAGVRIQFKPDDGTTPERIAQITGPPDRAQHAAEIITDLLRSVQAGNPGGPGPGGRGRGRGQGNWNMGPPGGLQEFNFIVPTGKTGLIIGKGGETIKSISQQSGARIELQRNPPPNADPNMKLFTIRGTPQQIDYARQLIEEKI,soluble
8,MGSDKIHHHHHHVEQTQTRVYQYKFVNSISNIDSLIWNIFFGSSHPFTRHEYLSALEMSRCVSTETGWTPMHLIVMDGDNIIALMPLYLKSHSWGEYVFDWAWAEAYERHNIGYYPKLVGSIPFTPTTGRRIGIDPRLPKHDQQPLIDGIQTYLSQTVIKQGWSSWHCLFTNTEQHLQFAQAGVMERVGCQFHWHNQNYADFNDFLSTLTSRKRKNITKERISARQQLQFRFIDGDKASAQQWQNFVRCYQNTYLKRSGHKGYLSAAFFEQIAATMGSMIRLLLIENSDAQLVASALYFVSDTHLYGRYWGALTECDYVHFEACYYQGIEYAIANQLLVFDAGAQGEHKVARGFRPVKTTSSHFVAHEGFNDAIGAFCQQEQAHIDIYIQQMCEQLPYKSIDNT,not soluble
9,GGSCFKCGKKGHFAKNCHEHAHNNAEPKVPGLCPRCKRGKHWANECKSKTDNQGNPIPPH,soluble
10,MGSDKIHHHHHHMCYNNSMNERYIRFNPNIAKQKPSNKDKCPFCDKSQLGKILDVKDDMIWVENKYPTLEETYQTLVIESNDHNGDISVYSESKMRQLLDYLLSKWQLMEESGHYRSVVLYRNFGPLSGGSLRHPHSQIVGLKNVDAYETLNLDWFDGIEVCSETSQQAEISIANRPMLDFTEFTIKVSKLENAILIADSLPILCHYILNEFLGGRCKSYNLFFYKHDGGLICKIVPRFIVSPYQIGYAIHQVNLPDELEKIKEALRAKYYL,not soluble
11,MSQANLSETLFKPRFKHPETSTLVRRFSAGKPQAMQSALSGNHVDHWYRLINRLMWIWRGVTPQEILDVQARIVMSEAERTDPELFDTVIGYRGGNWIFEWAKEAMQWQQKAGQEADPLLSGRHWLHASNLYSIAAYPHIKGDELAEQAQALANRAYEEAAQRLPGSLRELEFTIPGGSPITGFLHMPKGEGPFPTVLMCGGLDSLQTDYYNLYENYFSPLGIAMLTIDMPSIGFSSKWTLNQDTSLLHQHALRHLENVPWIDHTRVAAFGFRFGANIAVRLGYLEPQRLKAVACLGPVVHGLLVDPLHQGRVPEMYLDVLASRLGMHDASDEALRVELNRYSLKTQGLLGRRCPTPMLSGFWKDDPFSPEEESRLITSSSADGKLLEIPFNPVYRNFDHALRQIARWINHRFG,not soluble
12,MAHHHHHHMPRSEKQSEEDDWELHPLFLSKIPNKKDINKNQALSALITLINEEEEKEVFSYEPRRKNLKKKITEKGQIIYKKDRRNFYEPYQQNKNDKINYFEKKTLGGHSDVSKEEEVMDVEVDEEGTPLTAAQQGGDHSGQNVSSSQQATDETSIGEVLVCLSMINLK,not soluble
13,MGSDKIHHHHHHMATAIRGLKLQTEDYFLTDKNAVMVAERHPQPVFPLHHHDFDELVIVWRGNGLHLWNDVPYRITRGDMFYVSAHDRHSYESVHELELDNILYIRNRLTLSADWQTLLPSGELPQSQRHWCLGSEGMDTIREKVDALTQECMKSDALSLQLSEALLLQIALLAARYRHSPDSPQLADAHQLDMLMNALRASIAAPFRFEAFCEQHHFSARSLRSRFKEQTGMSVPHYLRQLRLCKAMELLRYDLQTIGDVAALCGFEDSNYFSVVFHQAFGVSPSAYRQRFLNVE,not soluble
14,MQSAYSFLPQVIAHRGSSGQAPENTLASLHLAGQQGIKWVEIDVMLSGDGIPVIFHDDYLSRTTDGDGLIYKTPLAELKQLDAGSWKGQEYQQETIPTLLEAIEVISQYGMGLNLELKPCEGLEEETIAASVEVLKQHWPQDLPLLFSSFNYFALVSAKALWPEIARGYNVSAIPSAWQERLEHLDCAGLHIHQSFFDVQQVSDIKAAGYKVLAFTINDESLALKLYNQGLDAVFSDYPQKIQSAIDSHIN,soluble
15,GPGSMGADIVEVDVWRTSDGALILMHDETLDRTTNGTGRVCDHTLAEVRALRLKDGLGNMTEFTVPTVEEVLLLAKDRAILNLDKADVYLDELYPLLVKTGMVEQTILKSEIPFDELCKRYSADLLNRVIFMPILNITDTTTYKNIDRAFAANHALYEVNFEKENADVLQYIRKLAKNSGAALWINTIWPTTCGGYSDDHALRDKDANWGYVVDRIGAGIIQTDRPAMLLAYLQERGCR,not soluble
16,MSLSLWQQCLARLQDELPATEFSMWIRPLQAELSDNTLALYAPNRFVLDWVRDKYLNNINGLLNTFCGADAPQLRFEVGTKPVTQTLKTPVHNVVAPAQTTTAQPQRVAPAARSGWDNVPAPAEPTYRSNVNVKHTFDNFVEGKSNQLARAAARQVADNPGGAYNPLFLYGGTGLGKTHLLHAVGNGIMARKPNAKVVYMHSERFVQDMVKALQNNAIEEFKRYYRSVDALLIDDIQFFANKERSQEEFFHTFNALLEGNQQIILTSDRYPKEINGVEDRLKSRFGWGLTVAIEPPELETRVAILMKKADENDIRLPGEVAFFIAKRLRSNVRELEGALNRVIANANFTGRAITIDFVREALRDLLALQEKLVTIDNIQKTVAEYYKIKIADLLSKRRSRSVARPRQMAMALAKELTNHSLPEIGDAFGGRDHTTVLHACRKIEQLREESHDIKEDFSNLIRTLSSLEHHHHHH,not soluble
17,MTEEKPKIGRPPVLSCAERTCQILRAAEQVFVCHGYSGTTMDRIACAAGMSKRTLYQHFPDKLAVLQGILRAYDAGPLMESLTDPDPPGSAREILHRSLVEILRFLLCPAQVALTRLAVSEATAAPEVARLFYDNAMGGLSAAFTRRIAGLAAQGRIRCSDADWLGSSLVGCALNRQLLRRLTHPEAGPPDVAELERRVSALLDLVGPSLGFAD,not soluble
18,GMEWQAEQAYNHLPPLPLDSKLAELAETLPILKACIPARAALAELKQAGELLPNQGLLINLLPLLEAQGSSEIENIVTTTDKLFQYAQEDSQADPMTKEALRYRTALYQCFTQLSNRPLCVTTALEICSTIKSVQMDVRKVPGTSLTNQATGEVIYTPPAGESVIRDLLSNWEAFLHNQDDVDPLIKMAMAHYQFEAIHPFIDGNGRTGRVLNILYLIDQQLLSAPILYLSRYIVAHKQDYYRLLLNVTTQQEWQPWIIFILNAVEQTAKWTTHKIAAARELIAHTTEYVRQQLPKIYSHELVQVIFEQPYCRIQNLVESGLAKRQTASVYLKQLCDIGVLEEVQSGKEKLFVHPKFVTLMTKDSNQFSRYAL,soluble
19,MGSDKIHHHHHHMMEMVNNSFRHGILFQEGKMEEARFIERPNRFTVRCALGSEILDAYLPNPGRLWELLLPDSVLYVVRRDVGQDRKLRGVVVAVEREGRPVMLHTLACNDIVADLLRQKRLPGFEGMNILQREIARGRSRFDFLLEQNGAPRLLEVKSCTLFGRCIAMFPDAVTLRGRRHLLELAELSRQGTPAHVLFLVHWPHADFFLPDYHTDFDFASTFLAVRDAVRFSALAVDWQPDMTPGAEIRELYIPWELLEREVQDSGCYLLVLHLPRNENVIPGGSTLLSLRKGYYVTVVSIRSGLTRHLQKSSRRRPGSENSRKSTVPDNLKAAADKILAIPIRTTEPLEAELNDALSRIADWSVPGFEARGDAGLAPVFGMAGPPLQRRAFVELLLDFRINRLEKFLARGAGSSAGPPVGNPSLEKIQ,not soluble
20,MHKEKHCAVVIDCWMEKIGEVNFENKPSKFPAFVEEIRKICGTKDFVFGLEDTRGFGRNLASYLTGRKFEVKHVNPVYTSAIRLSNPIIYKDDSYDAYCVARVLRDMVDTLQDAKHEDIYWAIRQLVKRREIIVKYNVMNKNQLHSQLSYGYPSYKKFFSQIDGKSALCFWENYPSPEHIWCTTPEQIYETIKAVHQAFKIERVHAIIDMIKKDGNTQKGYQEERDTIVRNIVKDIKNNQELLKDIEKQLRKLLPQTGYKLQTMPGIDLITEAKIVSEIGDINRFPNSDKLARFMGLAPVHFSSAGKGKEERCRNGNRELNAIFHFLAIQMVAVSPSGKPRHPVFREYFEQKVKEGKNKPQALICISRTLVRLIYGMMKTKTEYRPYEKKEEEGNN,soluble
21,MQPDVSFAPDVSFVIASYNAEATLDRAIASAIAQKGVSVEIIVVDDQSRDATLDVARAYPGDIVRVVALAKNRGPGGARNAGLDVARGRWIAVLDSDDAVFPGRLAAMISRAEKADAQIAVDNLQVIREDGVVEDAMFPRQYLEGLREISLATYIAGNVVFESKFNLGYLKPIFQRRFLDENRLRYDEQLRIGEDYILFAEALAKGGRCVVEPAIGYAYHIRSGSISRVLELHHVEAMRKADAVFAQTHRMDEAAQVAFARRGRSLRKAASFLAMVQHIKARSPLKAIRTALSDPAAVRHMGMPIAVRLRRVAAQFAVGAGRLEHHHHHH,soluble
